Reference: US12708677B2, “Contrast agents, methods for preparing contrast agents, and methods of imaging” (Georgia State University Research Foundation, Inc., priority 2008, dated 2026)

B1: CA1.CD2: designed Gd^3+-binding protein, domain 1 of rat CD2 with ligand residues Glu15, Glu56, Asp58, Asp62, Asp64 (protein)
chain: RDSGTVWGALGHGIELNIPNFQMTDDIDEVRWERGSTLVAEFKRKMKPFLKSGAFEIDANGDLDIKNLTRDDSGTYNVTVYSTNGTRILNKALDLRILE
B2: Gd-CA1.CD2: CA1.CD2 in complex with Gd^3+ (protein)
chain: B1 chain

Legend:
[1] = Gd^3+-binding affinity, dye competition titration with Fluo-5N; conditions: phosphate 50 mM
Method: Gd^3+-binding Affinity Determination, […]-binding affinity of CA1.CD2 was determined by a competition titration with Fluo-5N applied as a Gd^3+ indicator. The fluorescence spectra of Fluo-5N were obtained with a fluorescence spectrophotometer (Photon Technology International, Inc.) with a 10 mm path length quartz cell at 22° C. Fluo-5N emission spectra were acquired at […] to 650 nm with an excitation at 488 nm. […] The experiment was performed with a gradual addition of CA1.CD2. An apparent constant, Kapp, was estimated by fitting the fluorescence emission intensity of Fluo-5N at 520 nm with different CA1.CD2 concentrations as a 1 to 1 binding model. Gd^3+-binding affinity of CA1.CD2, Kd2, was calculated with the following equation: […]
Since metal selectivity for Gd^3+ over other physiological metal ions is for minimizing the toxicity of the agents,^39, 40 we measured metal binding constants using dye-competition assays with various chelate-metal buffer systems (Table 1). […]
Gd^3+-binding affinities of CA1.CD2 and its pegylated variants were determined by a competition titration with Fluo-5N applied as a Gd^3+ indicator (Yang et al., JACS, 2008). The fluorescence spectra of Fluo-5N were obtained with a fluorescence spectrophotometer (Photon Technology International, Inc.) with a 10 mm path length quartz cell at 22° C. […]

[2] = Ca^2+ binding constant, dye competition / Tb^3+ FRET competition
Excerpt: Since metal selectivity for Gd^3+ over other physiological metal ions is for minimizing the toxicity of the agents,^39, 40 we measured metal binding constants using dye-competition assays with various chelate-metal buffer systems (Table 1). Low limit metal binding affinities of the proteins were also estimated based on Tb^3+-sensitized FRET and competition assays. […] This is considered for in vivo applications of the contrast agent as the phosphate concentration in serum is maintained at ~1.3 mM.^6, 9 The stability of a contrast agent in blood circulation is another factor for in vivo applications. We characterized the stability by incubating Gd-CA1.CD2 with 75% human serum at 37° C. for 3 and 6 hours.
Metal binding affinity for Ca^2+ and Zn^2+ were determined using similar competition methods and specific dyes with proper Kd values.

[3] = Dynamic NMR, rotational correlation time and S^2 order; format: physicochemical
Method: Therefore, the measured correlation time of the protein directly reflects the τR of the metal binding site. In contrast, the flexible metal binding loop in CA9.CD2 has an S^2 order value of 0.3-0.4, which is very different from CA1.CD2 with an S^2 value very close to that of the backbone of the protein.
Pulse field diffusion NMR was applied to measure the hydrodynamic radii of the protein (Lee et al., BBA 2003) with Protein samples CA1.CD2 and its variants of 0.2 mM in buffer, Lysozme and diaxone were used as an external and internal reference for calibration. The correlation size of the protein was measured using TauC pulse sequence developed by the Prestegard lab at UGA using ^15N labeled protein.

[4] = system: AU565 cells; test: Cell binding by immuno-fluorescence staining; format: cell-based; conditions: 37 and 4° C.
Excerpt: (§1) We first examined whether the designed CA1.HER2/Affi can target cancer cells by cell binding analyses. We used two cancer cell lines for the binding analyses. AU565 is derived from breast carcinoma. EMT6 is a mouse mammary tumor cell line. AU565 cells express very high levels of HER2. The EMT is regarded as a HER2 negative cell line. Binding of the Gd-CA1.HER2/Affi to the cancer cells was first analyzed by immuno-fluorescence staining using a polyclonal antibody against PEGylated parental protein CA1.CD2 (PAbPGCA1).

[5] = system: EMT6 cells; test: Cell binding by immuno-fluorescence staining; format: cell-based, mouse
Excerpt: as §1

[6] = system: CD-1 mice; test: Mouse MR imaging; format: in vivo
Method: (§2) Mouse MR Imaging. Care of experimental animals was in accordance with institutional guidelines. CD-1 mice (25-30 g, four mice were imaged) were anesthetized with an isoflurane gas mixture. The anesthetized animal was positioned and stabilized with soft-supporting material (e.g., foam) in the scanner in the coil cradle and was kept warm during the MRI scan. The mice were scanned prior to the administration of any contrast agent (pre-contrast). Approximately 50 μl of Gd-CA1.CD2 (~1.2 mM) or Gd-DTPA (~300 mM) were injected into the animal via the tail vein. MR images were collected at different times (indicated). For T1 weighted imaging at 3T, spin echo sequence with TE/TR=15 ms/500 ms was employed. Rectangular Field of View (FOV) at 100/40 mm, an acquisition matrix of 196^2 and 1.1 mm slice thickness without gap were used. Images were collected from both transverse and coronal sections. The in-plane resolution of images was less than 0.5 mm after they were reconstructed to the matrix of 196^2. For T2 weighted imaging at 9.4T, MR images were recorded using a multi-echo Carr-Purcell-Meiboom-Gill (CPMG) sequence. The data were collected and processed by Dicomworks software. The MR signal intensity in several organs was ascertained by the average intensity in ROIs or points within the organs. Signal intensity for each organ was normalized to that of the leg muscle.
as §2, with “Care” for “Mouse MR Imaging. Care”, “(e.g.” for “(e.g.,”

| Molecule | removal of Gd^3+ from the protein by phosphate [1] | Metal binding constant (Log Ka) Ca^2+ [2] | disassociation constant (Kd) for Ca^2+ [2] [mM] | Log (KGd/KCa) ([2]; metal selectivity) | overall correlation time ([3]; absence of bound metal ions) [ns] | overall correlation time ([3]; presence of bound metal ions) [ns] | binding to AU565 cells [4] | binding to EMT6 cells [5] | MRI contrast enhancement, T1 weighted spin echo ([6]; 3T, ~2.4 μmole Gd/kg via tail vein) | T2 contrast enhancement ([6]; 9.4T) | T1 contrast enhancement in the kidney cortex ([6]; 18 hours after administration) | duration of contrast enhancement at multiple organs ([6]; mouse, in vivo) [h] |
| --- | --- | --- | --- | --- | --- | --- | --- | --- | --- | --- | --- | --- |
| B1 | not able to remove the Gd^3+ from the protein | <2.22 | ≥ 6 | >9.84 | 9.20 | 9.08 | did not bind to either of the tested cultured cells | did not bind to either of the tested cultured cells |  |  |  |  |
| B2 |  |  |  |  |  |  |  |  | greatest enhancement of the MRI contrast observed in the kidney | strong T2 contrast enhancement | diminished substantially | 4 to 7 |
